Test results reported in patent US20240245805A1 (Orna Therapeutics, Inc., priority 2020, published 2024).

B1: Avian orthoreovirus segment S1 (nucleic acid, listed as Avian orthoreovirus)
DNA: GCTTTTTCAATCCCTTGTGTCGATGTTCCCGTATGTCATCTGGTTCATGTAACGGTGCAACTTCTATTTTTGGTAACGTTCACTGTCAGGCAGCGCAAAACTCGGCGGGTGGTGATCTTCAAGCGACTTCCTCTCTTGTTGCTTATTGGCCCTACTTGGCTGCGGGCGGTGGTCTGCTCGTTGTTATTATTATAATTGTTGGCGCTGTTTGTTGTTGCAAGGCTAAGGTTAAAGCGGACGCAGCCCGAAACGTTTTCTACCGAGAGCTGTTCGCACTTAATTCGGGTAAAAGTGATGCAGGACCTCCGATTTACCAGGTTTAGTGTACGACGATTTGAGTTTTCACCTTTCGTCTTAGAGGAGTGCACTACTCCATCTTTCACGACTATAACTAATACCGATCCGGCTCTCTACTTTAACATTGAGTTTCCGTCAAGTCATCGTCTCTCCCCCTTCATTCCAGAACTGTTGTCTCAGCCTTGTACCGTTCACGTTTCATTGATTCGGAGATTCGCTCTCTGTGCAACCTTATCTAGTATTTGTGAATACGACTGTGCGCTACTGCCATCCATCAACGCTATTACGACGATCCCTACACCAGGTGCGTCATCATCTCTGATTGTTCATTGGG
B2: Picornavirales sp. isolate RtMruf-Pico V (nucleic acid)
DNA: TTTGCTCAGCGTAACTTCTCCGGGTTACGTGGAGACCAAAAGGCTACGGAGACTCGGGCTACGGCCCTGGAGCACCTAGGTGCTCCTAAAGACGTTAGAAGTTGTACAAACTCGCCCAATAGGGCCCCCCAACCAGGGGGGTAGCGGGCAAGCACTTCTGTTTCCCCGGTATGATCTCATAGGCTGTACCCACGGCTGAAAGAGAGATTATCGTTACCCGCCTCACTACTTCGAGAAGCCCAGTAATGGTTCATGAAGTTGATCTCGTTGACCCGGTGTTTCCCCCACACCAGAAACCTGTGATGGGGGTGGTCATCCCGGTCATGGCGACATGACGGACCTCCCCGCGCCGGCACAGGGCCTCTTCGGAGGACGAGTGACATGGATTCAACCGTGAAGAGCCTATTGAGCTAGTGTTGATTCCTCCGCCCCCGTGAATGCGGCTAATCCCAACTCCGGAGCAGGCGGGCCCAAACCAGGGTCTGGCCTGTCGTAACGCGAAAGTCTGGAGCGGAACCGACTACTTTCGGGAAGGCGTGTTTCCTTTTGTTCCTTTTATCAAGTTTTATGGTGACAACTCCTGGTAGACGTTTTATTGCGTTTATTGAGAGATTTCCAACAATTGAACAGACTAGAACCACTTGTTTTATCAAACCCTCACAGAATAAGATAACA
modifications: lipid formulation; source: /note="Description of Unknown: Picornavirales sp. isolate RtMruf-PicoV sequence"
B3: Apodemus agrarius picornavirus strain Longquan-Aa118 (nucleic acid)
DNA: TTACTCAGCGTAACTACTCCGGGTTACGTGATGAAGAAGAGGCTACGGAGATTCTCGGGCTACGGCCCTGGAGCCACTCCGGCTCCTAAAGATTTAGAAGTTTGAGCACACCCGCCCACTAGGGCCCCCCATCCAGGGGGGCAACGGGCAAGCACTTCTGTTTCCCCGGTATGATCTGATAGGCTGTAACCACGGCTGAAACAGAGATTATCGTTATCCGCTTCACTACTTCGAGAAGCCTAGTAATGATGGGTGAAATTGAATCCGTTGATCCGGTGTCTCCCCCACACCAGAAACTCATGATGAGGGTTGCCATCCCGGCTACGGCGACGTAGCGGGCATCCCTGCGCTGGCATGAGGCCTCTTAGGAGGACGGATGATATGGATCTTGTCGTGAAGAGCCTATTGAGCTAGTGTCGACTCCTCCGCCCCCGTGAATGCGGCTAATCCTAACCCCGGAGCAGGTGGGTCCAATCCAGGGCCTGGCCTGTCGTAATGCGTAAGTCTGGGACGGAACCGACTACTTTCGGGAAGGCGTGTTTCCATTTGTTCATTATTTGTGTGTTTATGGTGACAACTCTGGGTAAACGTTCTATTGCGTTTATTGAGAGATTCCCAACAATTGAACAAACGAGAACTACCTGTTTTATTAAATTTACACAGAGAAGAATTACA
modifications: source: /note="Description of Unknown: Apodemus agrarius picornavirus strain Longquan-Aa118 sequence"
B4: Human enterovirus C105 (nucleic acid, listed as Enterovirus sp.)
DNA: CCCCTAGGATCCACTGGATGTCAGTACACTGGTATCGTGGTACCTTTGTACGCCTGTTTTATACCCCCTTCCCCGCAACTTTAGAAGCATCAAAAGCACCGCTCAATAGTCACCACACCCCCAGTGTGGTTTCGAGCAAGCACTTCTGTTTTCCCGGTTGCGTCCCATATGCTGTGCAAACGGCAAAAAGGGACAATATCGTTACCCGCTTGTATACTACGGGAAACCTAGTACCACCATTGATTGTGTTGAGAGTTGCGCTCATCACCTTTCCCCGGTGTAGCTCAGGCCGATGAGGCTCAGAATCCCCCACAGGTGACTGTGTCTGAGCCTGCGTTGGCGGCCTGCCCTCGCCTTATGGCGTGGGACGCTTGATACATGACATGGTGCGAAGAGTCTACTGTGCTATGCAAGAGTCCTCCGGCCCCTGAATGTGGCTAATCCTAACCACTGATCCCACGCACGCAAACCAGTGTGTAGTGGGTCGTAACGCGCAAGTCGGTGGCGGAACCAACTACTTTGGGTGACCGTGTTTCCTTTATTACTTATTGAATGTTTATGGTGACAATTGTTTGATTCAGTTGTTGCCATTCTCTACATTCATTTACCCAGCATCAAACCAATTGAACTGTTACA
B5: Human enterovirus 109 (nucleic acid, listed as Enterovirus sp.)
DNA: TTTAAAACAGCCTGGGGGTTGTTCCCACCCCCAGGGCCCACTGGGCGTTAGTACTCTGGTATCGCGGTACCTTAGTATGCCTGTTTTATGTCTCCTTTCCCCCGCAACTTTAGAAGTAATCAAGTTATGGCTCAACAGTCGCCACACCCCCAGTGTGGTTCCGAGCAAGCACTTCTGTTCCCCGGTTGCGTCTTATATGCTGTGTGAACGGCAGAAAGGGACAATATCGTTATCCGCTCAACTACTACGGGAAGCCTAGTACCACCATGGATTGACCTGAAAGTTGCGTTCAGCGCACCCCCAGCGCAGCTCAGGCCGATGAGGCTCCGAATACCCCACGGGCGACCGTGTCGGAGCCTGCGTTGGCGGCCTGCCCACGTTGCAAAACGTGGGACGCTCATTTCATGACATGGTGCGAAGAGCCTACTGTGCTAGTTGAGAGTCCTCCGGCCCCTGAATGTGGATAATCCTAACCACTGAACCTACGGGCGCAAACCAGCGTCTGGTAGGCCGTAACGCGCAAGTCGGTGGCGGAACCAACTACTTTGGGTGTCCGTGTTTCCTTTTATCTTTTTGAATGTTTATGGTGACAATTGTTGTGTACAGTTGTTACCATAGTTTGCATTCAGAAATAAACCTAACACTTTCCAATTATTTGTTACA
B6: Grusopivirus A (nucleic acid)
chain: TGCCTGAGTAGGATTGTGAATTTAGGTATGAGAGGGTTAGCCAACCCATTCTGAACCATAATAGATACGTCAATCTGAATCCATCTAAATCTATCTCTTAGGCAGTGGTGCTGAAATATTGCAAGCTACTAGGGATAGACGTGATCTGATTCAAGAACCTATCTAATGTGGTGATGAGAAGGCTAGGTTTATCCATAGTAATCCCTTGTTCTGAACAGGCAATGCACATGCTCTAGTAGGATCTCGGGCTCTGCGATTGGCTCTAAACCGACCAATCCAGGTAGAGGCACTAAGTGTAGGACTTGCCAAAATGTATTACATGCTGGTACCGACTCACTAGTCTGGAAACTCCACACTGAAAGTGACTGGGGGGGGCCCCATCACATTTGTGCTACTGCTTGATAGAGTTGCGGCTGGTCAACTTGGATTGGTATAACCAGTTGAA
modifications: lipid formulation; Grusopivirus A
B7: Grusopivirus B (nucleic acid)
chain: GCCATCCGTAGGTTCTGGTAAGGTTCCATCAACTGTTGGGGCGCTAGTTGCTATGACCGCATTCACGGACGGATGATTTATAGTATCACCCAATCCGGGCACAACTTCTTTAGCCACTTCTTCCACATTACTAAGGGCTCTCTTGCCGAGTTTCAACGTCTAGTCCACGACACGGACCTTCCTACTTTTCTATCTTCTTATTTTCTCTACTAAATTGGTATCTGGTACTGAAGATATGCGGATTGTGATTTTGTGCCTGTCTAAACTAACCCTATTCTAGGGTTAGGTGGGTACCATATACTAATGGTGAACAGGATTACCTATGTATCCATTAGTCCCTATGGATCTGGCGACCCACAAACTCATGTTCATAGAGAGGCTAAGCTGAGTGCTCGCCGAATAAGCATTGCTTCAGGTGCCGACTATTGTCTGGAAACCACTCAGTGATAGCTATAGGGGGGGGCCCCGTAGCATCTGCCTTACTGCCTGATAGGGTGGCGGCTGGTCCATGAACATGCAGTAACCAGTTGACTTGAC
modifications: lipid formulation; Grusopivirus B
B8: Yancheng osbecks grenadier anchovy picornavirus (nucleic acid)
DNA: CCTTAGGGTCTGGAATGCGTCCTTTCTGGGCACTTCCACAATCCTAAGGTAATTTTCAACGCCAGCGATGGAGCGATATCCAAAGAACCTTTATGTTTTAGTTCGTCTTGTATGTTTATAAAATATAAAATTGGGATTAGCAACCCACAAAAACATTTTTGTTATTCTCACCACATGAGAGGGTGGTTAAACCTCTTCGTAACCTATCTTGCTTGATTGGCTACTTGGGCTAGATTTAGGACAACCTCTTTAGCAAGCCTAAATTACTCCTCGTACTTGCACCTGGTAACAGGCGTACCTGGAGGTTACGGTGGCGCTAACTTGGACTTCTCGTTAATTCGTGCAAGTTTAAATGATGCCTATTTTGAATACAAGAAAGTATGATAGTAACTTAGGGCGTGAAGTTCCGCTTAACATAAGGCAGTATAAGTACTAAGATAAGGTGTAAGACCTACCTTAATAACTGTTGTCTTTTCTCATGGTCTTTCCGTGGGAGCCCTTGCTAGGGGTAAAGTTAAGTATTCTCAAATAATTTTTCATTCAAACTCTTTCTCTCTGTTTT
modifications: lipid formulation; source: /note="Description of Unknown: Yancheng osbecks grenadier anchovy picornavirus sequence"

Tested on: HEK293 cells
Format: cell-based, human
Conditions: circular RNA encoding Gluc with the listed IRES (UTR truncated to 675 nt) transfected into HEK293 cells; supernatant after 24 hours

Point of comparison: B3, “Expression (luminescence from secreted Gluc protein)” value 1.90E+08. Against it:
- B1 — lower, 4.37E+05
- B2 — higher, 2.26E+08
- B4 — lower, 5.49E+05
- B5 — lower, 4.92E+05
- B6 — lower, 1.09E+05
- B7 — lower, 2.12E+05
- B8 — lower, 1.57E+06
